From patent US20250326792A1, “A FORMULATION FOR TREATMENT OF PIGMENTARY DISORDERS” (priority 2022, published 2025)
PHPP = 3-Phenylpyrazolo[3,4-d]pyrimidine (N-terminal cap)

What was measured:
[1] = Stability of IS103 API, accelerated (Condition 1, 5±3° C.); format: physicochemical
Procedure: The purpose of stability testing is to provide evidence on how the quality of a drug substance or drug product varies with time under the influence of a variety of environmental factors such as temperature, humidity, etc. and to establish a re-test period for the drug substance or a shelf life for the drug product and recommended storage conditions. The study was conducted according to the WHO and schedule-Y guidelines.
The IS103 API is a lyophilized white fluffy powder, and it was filled at sterile condition in glass injection vial which has airlock-rubber capping. This container closure system is same as or simulates the packaging proposed for storage and distribution.
The following test attributes have been selected according to the above said guidelines: • appearance; odour; colour; colour of solution (when IS103 API is soluble in solvent); clarity of solution; degradation and assessment of container closure system.
The studies were conducted under appropriate storage conditions (with appropriate tolerances) that test IS103 API thermal stability and its sensitivity to moisture. The IS103 API is intended for storage for 36 months. Accordingly, long term stability studies were done for 36 months. The details of the storage conditions have been furnished hereunder.

[2] = Solubility of synthetic peptide IS103; format: physicochemical
NHEM cells = assay: Cell viability (XTT assay) in NHEM cells; format: cell-based, Human; conditions: 1000 μg/ml for about 48 hours
Procedure: Culture and maintenance of cell lines: B16F10 cells were cultured in RPMI containing 10% fetal bovine serum, 100 units per millilitre (U/mL) penicillin, 0.1 mg/mL streptomycin, and 0.25 microgram per millilitre (μg/mL) amphotericin B at 37 degrees Celsius in a humidified 95% air/5% CO2 incubator. Drug treatment was done 24 hours after seeding. Cells were harvested 48 hours later and melanin content and tyrosinase activity determined in triplicate. […] […]
B16F10 and NHEM cells were sub-cultured into 96-well culture plates at a density of 1×10^4 cells/well in 100 μL medium and after about 24 hours of incubation, the medium was discarded and replaced with 100 μL of a suitable medium (RPMI for B16F10 and DMEM for NHEM with 1% FBS) for starvation and then treated in the presence or absence of various concentrations of test compound and positive controls (IBMX and α-MSH). […] At the end of the incubation, about 50 μL of XTT test solution prepared by mixing about 5 mL of XTT-labeling reagent and about 100 μL of electron coupling reagent is added to each well and after about 4 hours of incubation at 37° C. and a about 5% CO2 incubator, the absorbance was measured on an ELISA reader at a test wavelength of 490 nm.

Substance: PHPP-Tyr-Arg-Ser-Arg-Lys-Tyr-Ser-Ser-Trp-Tyr-NH2 ({PHPP}-YRSRKYSSWY-NH2) [IS103]
- API calculated on the anhydrous basis ([1]; 5±3° C., 1 M): 99.68%
- Appearance white to off white amorphous powder ([1]; 5±3° C., 1 M): White
- Related substances (By HPLC) Any Max Impurity ([1]; 5±3° C., 1 M): 0.35%
- Related substances (By HPLC) Total Impurity ([1]; 5±3° C., 1 M): 2.23%
- Solubility Sparingly soluble in water ([1]; 5±3° C., 1 M): Complies
- Water Content (By Karl Fischer-Titrator) ([1]; 5±3° C., 1 M): 4.27% w/w
- Internal change in attributes: Appearance ([1]; 5±3° C., 1st month): No change
- Internal change in attributes: Clarity of solution ([1]; 5±3° C., 1st month): No change
- Internal change in attributes: Color ([1]; 5±3° C., 1st month): No change
- Internal change in attributes: Color of solution ([1]; 5±3° C., 1st month): No change
- Internal change in attributes: Odor ([1]; 5±3° C., 1st month): No change
- Internal change in attributes: Appearance ([1]; 5±3° C., 2nd month): No change
- Internal change in attributes: Clarity of solution ([1]; 5±3° C., 2nd month): No change
- Internal change in attributes: Color ([1]; 5±3° C., 2nd month): No change
- Internal change in attributes: Color of solution ([1]; 5±3° C., 2nd month): No change
- Internal change in attributes: Odor ([1]; 5±3° C., 2nd month): No change
- API calculated on the anhydrous basis ([1]; 5±3° C., 3 M): 99.14%
- Appearance white to off white amorphous powder ([1]; 5±3° C., 3 M): White
- Related substances (By HPLC) Any Max Impurity ([1]; 5±3° C., 3 M): 0.40%
- Related substances (By HPLC) Total Impurity ([1]; 5±3° C., 3 M): 2.30%
- Solubility Sparingly soluble in water ([1]; 5±3° C., 3 M): Complies
- Water Content (By Karl Fischer-Titrator) ([1]; 5±3° C., 3 M): 4.29% w/w
- Internal change in attributes: Appearance ([1]; 5±3° C., 3rd month): No change
- Internal change in attributes: Clarity of solution ([1]; 5±3° C., 3rd month): No change
- Internal change in attributes: Color ([1]; 5±3° C., 3rd month): No change
- Internal change in attributes: Color of solution ([1]; 5±3° C., 3rd month): No change
- Internal change in attributes: Odor ([1]; 5±3° C., 3rd month): No change
- API calculated on the anhydrous basis ([1]; 5±3° C., 6 M): 99.00%
- Appearance white to off white amorphous powder ([1]; 5±3° C., 6 M): White
- Related substances (By HPLC) Any Max Impurity ([1]; 5±3° C., 6 M): 0.49%
- Related substances (By HPLC) Total Impurity ([1]; 5±3° C., 6 M): 2.44%
- Solubility Sparingly soluble in water ([1]; 5±3° C., 6 M): Complies
- Water Content (By Karl Fischer-Titrator) ([1]; 5±3° C., 6 M): 4.87% w/w
- Internal change in attributes: Appearance ([1]; 5±3° C., 6th month): No change
- Internal change in attributes: Clarity of solution ([1]; 5±3° C., 6th month): No change
- Internal change in attributes: Color ([1]; 5±3° C., 6th month): No change
- Internal change in attributes: Color of solution ([1]; 5±3° C., 6th month): No change
- Internal change in attributes: Odor ([1]; 5±3° C., 6th month): No change
- API calculated on the anhydrous basis ([1]; 5±3° C., Initial): 99.73%
- Appearance white to off white amorphous powder ([1]; 5±3° C., Initial): White
- Related substances (By HPLC) Any Max Impurity ([1]; 5±3° C., Initial): 0.39%
- Related substances (By HPLC) Total Impurity ([1]; 5±3° C., Initial): 2.09%
- Solubility Sparingly soluble in water ([1]; 5±3° C., Initial): Complies
- Water Content (By Karl Fischer-Titrator) ([1]; 5±3° C., Initial): 4.18% w/w
- found to be stable for ([1]; accelerated condition, 5±3° C.): 6 months
- stable for ([1]; refrigerator (5±3° C.) conditions): 36 months
- Solubility [2]: soluble in water
- effect on cell viability (NHEM cells): did not exert any significant effect on cell viability
